Measured values reported in PMC6733660 (Virology, 2019).

B1: HB17 (antibody, V domains shown)
VH: ELVIPGASVKVSCKASGYTFTSYWIHWVKQWPGQGLEWIGEINPNNGHTNYNEKFKSKATLTVDKSSSTAYMQLSSLTSEDSAVYYCARNLFYYSRPDYWGQGTSVTVSS
VL: SLSASLGDRVTISCRASQDIGNYLNWYQQKPDGTIKLLIYYTSRLHSGVPSRFSGSGSGTDYSLTISNLEEEDIATYFCQQGNTLPPTFGGGTKLEIK
B2: HB3 (antibody, V domains shown)
VH: ELVRPGASVKLSCKASGYTFASYWMQWVKQWPGQGLEWIGEINPNNGHTNYNERFKNKASLTVDKSSSTAYMQLSSLTSEDSAVYYCARNLYYYGRPDYWGQGTSVTVSS
VL: SLSASLGDRVTISCRASQDIGNYLNWYQQKPDGTIKLLIYYTSRLHSGVPSRFSGSGSGTDYSLTISNLEEEDIATYFCQQGNTLPPTFGGGTKLEIK
B3: HB10 (antibody, V domains shown)
VH: ELVRPGASVKLSCKASGYTFTSYWMHWVKQWPGQGPEWIGEINPSNGHTNYNERFKNKATLTVDKSSSTAYMQLSSLTSEDSAVYYCARNLYYYGRPDYWGQGTSVTVSS
VL: SLSASLGDRVTISCRASQDIGNYLNWYQQKPDGTVKLLIYYTSRLHSGVPSRFSGSGSGTDYSLTISNLEEEDIATYFCQQGNTLPPTFGGGTKLEIK
B4: HB2 (antibody, V domains shown)
VH: ELKKPGETVKISCKASGYTFTAYSMHWVKLTPGKGLKWMGWINTKTGEPTYADDFKGRFAFSLETSASTAYLQINNLKNEDTATYFCAPYGYALDYWGQGTSVTVSS
VL: ILSASPGEKVTMTCRATSSVNYMHWYQQKPGSSPKPWIYATSNLASGVPARFSGSGSGTSYSLTISRVEAEDAATYYCQQWSSNPPTFGAGTKLELK
B5: HB6 (antibody, V domains shown)
VH: ELRKPGETVKISCKASGYTFTDYSMHWVKQTPGKGLKWMGWINTRTGEPRYADDFKGRFAFSLETSASTAYLQINNLKNEDTATYFCAPYGYALDYWGQGTSVTVSS
VL: ILSASPGEKVTMTCRATSSVNYMHWYQQKPGSSPKPWIYATSNLASGVPARFSGSGSGTSYSLTISRVEAEDAATYYCQQWSSNPPTFGAGTKLELK
B6: HB14 (antibody, V domains shown)
VH: SGAELVRPGASVNLSCKALGYTFTDYEMHWVKQTPVYGLEWIGTIHPRRGGTAYNQRFKGKAALTADKSSSTAYMELSSLTSEDSAVYYCARYGYPWYFDVWGAGTTVTVSS
VL: SLPVSLGDQASISCRSSQSIVHDNGNTYLEWYLQKPGQSPKLLIYKVSNRFSGVLDKFSGSGSGTDFTLKISRVEAEDLGIYYCFQGSHVPPTFGGGTKLEIK
B7: HB22 (antibody, V domains shown)
VH: GLVAPSQSLSITCTVSGFSLTNYGIHWVRQPPGKGLEWLVVIWSDGSTIYNSALKSRLSISKDNSKSQVFLKMNSLQTDDTAMYYCARNYYGNSYPAWFAYWGQGTLVTVSA
VL: SLPVSLGDQASISCRSSQSIVHSNGNTYLEWYLQKPGQSPKLLIYKVSNRFSGVPDRFSGSGSGTDFTLRISRVEAEDLGVYYCFQGSHVPWTFGGGTKLEIK
B8: HB7 (antibody, V domains shown)
VH: ELVRPGASVKLSCKALGYTFTDYEMHWVKQTPVHGLEWIGTISPGRSGTAYNQKFKGKATLTADKSSRTAYMELNSLTSEDSAVYYCSRYGHPSYLDVWGAGTTVTVSS
VL: FMSTSVGDRVNITCKASQSVGNAVAWFQQKPGQSPKLLIYSASNRYTGIPDRFTGSGSGTDFTLTCNNMQSEDLADYFCQQYSSYPLTFGAGTKLELK
B9: HB8 (antibody, V domains shown)
VH: ELKKPGETVKISCKASGYSFTNYGMNWVKQAPGKGLKWMGWINTYTGEPTYADDFKGRFAFSLETSASTAFLQINNLKNEDTATYLCARYYYGSVYSAWFAYWGQGTLVTVSA
VL: LSLPVSLGDQASISCRSSQSIVHSNGNTYLEWYLQKAGQSPKLLIYKVSNRFSGVPDRFGGSGSGTDFTLKISRVEAEDLGVYYCFQGSHVPYTFGGGTKLEIK
B10: HB9 (antibody, V domains shown)
VH: GGLVKPGGSLKLSCAASGFTFSSYTMSWVRQTPEKRLEWVATISSGGSYIYYPDSVKGRFTISRDNAKNTLYLQMSSLKSEDTAIYYCTREDFYYGSSYGFFDVWGAGTTVTVSS
VL: LSLPVSLGDQASISCRSSQSIVHSNGNTYLEWYLQKAGQSPKLLIYKVSNRFSGVPDRFGGSGSGTDFTLKISRVEAEDLGVYYCFQGSHVPYTFGGGTKLEIK
B11: HB20 (antibody, V domains shown)
VH: ELVKPGASVKLSCKASGYTFTSYWIQWVKQRPGQGLEWIGEINPTNGHTNYNEKFKTKATLTVDKSSSTAYMRLSSLTSEDSAVYYCARNLYYYGRPDYWGQGTSVTVSS
VL: SLSASLGDRVTISCRASQDIGNYLNWYQQKPDGTVKLLIYYTSRLHSGVPSRFSGSGSGTDYSLTISNLEQEDIATYFCQQGNALPPTFGGGTKLEIK
B12: HB5 (antibody, V domains shown)
VH: ELVRPGASVKISCKAFGYTFTNHNINWVKQRPGQGLDWIGYINPYNDYTSYNQKFKGKATLTVDKSSNTAYMELSSLTSEDSAVYYCARSEGWLRRGAWFAYWGQGTLVTVSA
VL: ILSVSPGERVSFSCRASQSIGTSIHWYQQRTNDSPRLLIKYASESISGIPPRFSGSGSGTDFTLSINSVESEDIADYHCQQSNSWPMLTFGAGTKLELK
B13: murine 72A1 (m72A1) (antibody, V domains shown)
VH: EVQLQQSGPELVKPGTSMKISCKASGSSFTDYTMNWMKQSHGKNLEWIGLINPYNGGTRYNQKFKGKATLTLDKSSSTAYMEVLSLTSEDSAVYYCAGGLRRVNWFAYWGQGTLVSVSA
VL: QAVLTQESALTTSPGETVTLTCRSSTGAVTTSNYANWVQEKPDHLFTGLIGGTNNRVPGVPARFSGSLIGDKAALTITGAQTEDEAIYFCVLWHSNHWVFGGGTKLTVL
B14: humanized 72A1 (h72A1) (antibody, V domains shown)
VH: EVQLVESGGGLVQPGGSLRLSCAASGSSFTDYTMNWMRQSPGKGLEWIGLINPYNGGTRYADSVKGRATLSLDKSKNTAYLQMNSLRAEDTAIYYCAGGLRRVNWFAYWGQGTLVTVSS
VL: DAQLTQSPILLSASVGDRVTITCRSSTGAVTTSNYANWVQERTNGSFRGLIGGTNNRVPGVPSRFSGSLSGDDATLTISSLQPEDEADYFCVLWHSNHWVFGAGTKVEIK
B15: HB11 (antibody, V domains shown)
VH: SLVKPSQTLSLTCSVTGDSITSGFWNWIRKFPGNKLEYMGYISYSGSTYYNPSLKSRISITRDTSKNQYYLQLNSVTTEDTATYYCARGNGGNYDWYFDVWGAGTTVTVSS
VL: IMSASLGEKVTMSCRASSSVNFMNWYQQKSDDSPKLLIYYISNLAPGVPARFSGSGSGNSYSLTISGMEGEDAATYYCQQFTSSPSWTFGGGTKLEIK

The binders below were run against T1, recombinant EBV gp350 ectodomain (aa 4–863) (Epstein-Barr virus, strain  …, UniProt P03200-1) (assay: ELISA).
T1 sequence (P03200 4-863): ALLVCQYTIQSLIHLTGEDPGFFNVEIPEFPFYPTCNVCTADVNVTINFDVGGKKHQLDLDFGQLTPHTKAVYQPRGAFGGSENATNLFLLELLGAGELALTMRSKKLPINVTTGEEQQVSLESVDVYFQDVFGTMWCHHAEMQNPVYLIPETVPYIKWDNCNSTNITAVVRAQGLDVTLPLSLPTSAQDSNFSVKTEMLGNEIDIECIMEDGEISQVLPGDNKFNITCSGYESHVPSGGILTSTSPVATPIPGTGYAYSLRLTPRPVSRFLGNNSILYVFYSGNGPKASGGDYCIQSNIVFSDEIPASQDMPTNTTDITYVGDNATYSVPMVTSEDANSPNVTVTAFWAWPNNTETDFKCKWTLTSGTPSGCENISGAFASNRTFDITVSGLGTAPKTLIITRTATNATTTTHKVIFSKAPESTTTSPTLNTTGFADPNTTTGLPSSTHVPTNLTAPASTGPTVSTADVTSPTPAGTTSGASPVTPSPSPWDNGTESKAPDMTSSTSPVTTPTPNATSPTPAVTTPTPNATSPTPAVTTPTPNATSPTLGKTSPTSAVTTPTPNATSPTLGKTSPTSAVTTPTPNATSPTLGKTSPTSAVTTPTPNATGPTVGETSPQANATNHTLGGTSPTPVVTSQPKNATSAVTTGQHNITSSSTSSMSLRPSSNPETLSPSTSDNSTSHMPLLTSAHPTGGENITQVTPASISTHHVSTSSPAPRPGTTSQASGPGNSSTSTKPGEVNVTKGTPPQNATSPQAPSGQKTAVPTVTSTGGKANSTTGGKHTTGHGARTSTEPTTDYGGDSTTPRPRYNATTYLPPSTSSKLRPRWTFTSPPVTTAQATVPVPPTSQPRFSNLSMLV
B1: binds. B2: binds. B3: binds. B4: binds. B5: binds. B6: binds. B7: binds. B8: binds. B9: binds. B10: binds.

Molecular target: T2, Pep-8 (gp350 aa 142–161) (Epstein-Barr virus, strain B95-8)
T2 chain: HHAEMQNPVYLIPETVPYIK
Assay: ELISA
B11: binds. B12: binds. B13: binds. B14: binds. B15: binds.

Molecular target: T1, recombinant EBV gp350 ectodomain (aa …)
Assay: ELISA
Remark: another data set of the same source
B14: binds.
